# Experimental data from patent US20100115639A1 (PIERRE FABRE MEDICAMENT, published 2010).
# Numbering of substitutions follows the chain as printed.
# B1: 224G11 murine monoclonal antibody (antibody, mouse IgG1, V domains shown)
# VH: EVQLQQSGPELVKPGASVKISCKTSGYIFTAYTMHWVRQSLGESLDWIGGIKPNNGLANYNQKFKGKATLTVDKSSSTAYMDLRSLTSEDSAVYYCARSEITTEFDYWGQGTALTVSS
# VL: DIVLTQSPASLAVSLGQRATISCRASESVDSYANSFMHWYQQKPGQPPKLLIYRASNLESGIPARFSGSGSRTDFTLTINPVEADDVATYYCQQSKEDPLTFGSGTKLEMK
# notes: also called CNCM I-3731
# B2: 227H1 murine monoclonal antibody (antibody, mouse IgG1, V domains shown)
# VH: EVQLQQSGPELVKPGASMKISCKASGYSFTDYTLNWVKQSHGKTLEWIGLINPYNGGTTYNQKFKGKATLTVDKSSSTAYMELLSLTSEDSAVYYCAREEITKDFDFWGQGTTLTVSS
# VL: B1 VL with D1G, A25V, V29I, S31T, A33G, M37I, V87S, K96N, L100F
# notes: also called CNCM I-3732
# B3: Fab fragment of mAb 224G11 (papain cleavage) (Fab, V domains shown)
# VH: B1 VH
# VL: B1 VL
# notes: also called 224G11 Fab
# B4: 223C4 murine monoclonal antibody (antibody, mouse IgG1, V domains shown)
# VH: EVLLQQSGPELVKPGASVKIPCKASGYTFTDYNMDWVKQSHGMSLEWIGDINPNNGGTIFNQKFKGKATLTVDKSSSTAYMELRSLTSEDTAVYYCARGRYVGYYYAMDYWGQGTSVTVSS
# VL: DIQMTQSPASLSVSVGETVTITCRASENIYSNLAWYQQKQGKSPQLLVYAATNLVDGVPSRFSGSGSGTQYSLKINSLQSEDFGSYYCQHFWGPPYTFGGGTKLEIK
# notes: also called CNCM I-3786
# B5: 11E1 murine monoclonal antibody (antibody, V domains shown)
# VH: QVQLQQSGAELAKPGASVKMSCKASGYTFTSYWMNWVKQRPGQGLEWIGYINPTTGSTDYNQKLKDKATLTADKSSNTAYMQLSSLTSEDSAVYYCAIGGYGSWFAYWGQGTLVTVSA
# VL: QIVLTQSPAIMSASPGEKVTLTCSASSSVSSTYLYWYQQKPGSSPKLWIYTTSILASGVPARFSGSGSGTSYSLTISSMETEDAASYFCHQWSSYPFTFGSGTKLDIK
# notes: Used as hybridoma supernatant or purified Mab; also called MAb 11E1; CNCM I-3724
# B6: Fab fragment of mAb 11E1 (papain cleavage) (Fab, V domains shown)
# VH: B5 VH
# VL: B5 VL
# notes: also called 11E1 Fab
# Tests used:
# [1] = target: c-Met receptor on A549 cells (human, UniProt P08581 25-1390); experiment: cell-based or functional assay
# [2] = target: T1, recombinant SEMA domain of c-Met (UniProt P08581 27-515, limits assumed); experiment: ELISA, SEMA domain coated at 3 µg/ml, hybridoma supernatants
# T1 construct: domain: SEMA; also called SEMA protein
# Procedure: The reaction is left to occur for 5 min at room temperature. The reaction is stopped by the addition of 50 μl/well of a 1 M H₂SO₄ solution and read on a plate reader at 450 nm.
# [3] = target: C-Met-Rluc and C-Met-K1100A-YFP co-expressed in CHO stable cell lines (R. reniformis), P08581; experiment: cell-based or functional assay
# [4] = target: T2, recombinant c-Met-Extra-Cellular Domain (ECD) fused to a human IgG1 Fc domain (R&D Systems, 358MT) (human, UniProt P08581 25-932); experiment: displacement of [125I]-HGF from immobilized c-Met-Fc (FlashPlate)
# T2 construct: extracellular domain; Bought; bivalent (dimeric) fusion, MW 129 kDa as printed; also called c-Met-Fc; c-Met-Fc-Tag His; not shown: human IgG1 Fc domain
# [5] = target: T2, recombinant c-Met-Extra-Cellular Domain …; experiment: BIAcore X, Fab as analyte on c-Met-Fc-His captured by anti-His antibody, 25°C
# Procedure: (§1) For the assay, an anti-Tag histidine capture antibody was coated on CM5 sensorchips. The running buffer was HBS-EP, the flow rate was 30 μl/min and the test was performed at 25° C. Soluble c-Met (ECD M1)2-Fc-(HHHHHH)₂ antigen was captured on the sensorchip (around 270 RU), and the antibodies to be tested were used in solution as analytes. The sensorship was regenerated using Glycine, HCl pH 1.5 buffer on both flowcells for half a minute.
# [6] = target: T2, recombinant c-Met-Extra-Cellular Domain …; experiment: BIAcore X, Fab as analyte on c-Met-Fc-His captured by anti-His antibody, 25°C; column head misprinted
# Procedure: as §1
Molecule,"agonist effect on c-Met phosphorylation (Mab alone, A549 cells) [1] [%]",antagonist effect on c-Met phosphorylation in presence of HGF (A549 cells) [1] [%],"inhibition of c-Met phosphorylation (phospho c-Met ELISA, A549 cells + HGF 100 ng/ml, antibody 30 µg/ml) [1] [%]",binding result [2],"inhibition of dimerization (BRET signal, CHO cells) [3] [%]",IC50 [4] [nM],"basal effect on c-Met phosphorylation (antibody alone, A549 cells) [1] [%]",Half-Life [5] [h],Kd [5] [nM],kon [5] [M⁻¹ s⁻¹],koff [6] [s⁻¹]
"5D5 Mab, generated by Genentech, available at the ATCC (antibody)",58,39,42,,,,,,,,
B1,,,54,no binding,32,3,< 20,,,,
B2,,,65,no binding,52,5.8,< 20,,,,
B3,,,,,,,,2.5,0.0348,2.04e+06,7.79e-05
B4,,,80,no binding,55,2.7,< 20,,,,
B5,,,68,,69,20,< 20,,,,
B6,,,,,,,,4.1,0.0414,1.13e+06,4.68e-05
